The assay deals with α-synuclein (human, UniProt P37840 1-140). Put plainly: quartz crystal microbalance (QCM); α-synuclein (1 μM) immobilised by amine coupling; 2.5, 5, 10, 15, 20 nM AD(Cys) added; citrate buffer (pH 4.0); kon, koff from linear regression of kobs against concentration. To be noted: both partners purified.

B1: Hsp60 AD(Cys), isolated apical domain of human Hsp60 with cysteines at the N- and C-termini (domain or fragment)
chain: CGMKFDRGYISPYFINTSKGQKCEFQDAYVLLSEKKISSIQSIVPALEIANAHRKPLVIIAEDVDGEALSTLVLNRLKVGLQVVAVKAPGFGDNRKNQLKDMAIATGGAVFGEEGLTLNLEDVQPHDLGKVGEVIVTKDDAMLLKGKGDKAQIEKRIQEIIEQLDVTTSEYEKEKLNERLAKLSDC
modifications: disulfide bond between the two engineered cysteines at the N- and C-termini
notes: Cysteine introduced at the N-terminus; the primer ACCATGTGCGGCATGAAATTCGATCGCGGTT encodes Met-Cys-GMKFDRG; Apical domain of human Hsp60; Cysteine introduced at the C-terminus of the domain, before the His6 tag; the primer AGTGATTGCCACCACCACCACCACCACTGA encodes SD-Cys-HHHHHH-stop; A start Met precedes the N-terminal Cys in the construct; Monomer by gel filtration; also called …
B1 yielded a Kd of 5.04 nM, a koff of 0.00295 s⁻¹ and an on-rate (kon) of 585000 M⁻¹ s⁻¹.

The values are drawn from PMC6982183 (International Journal of Molecular Sciences, 2019).
